Where a name gives a salt, the structure may show the parent alone. No end group written: not given here.
Key:
[1] = TNBS assay, acidic hydrolysis of the cis-aconityl linkage; assay type: physicochemical
Method: TNBS (2,4,6-trinitrobenzene sulfonic acid) assay was performed in this example to analyze the acidic hydrolysis of the cis-aconityl linkage in the polypeptide-based long chain copolymer in conditions of different pH values. TNBS reacts with primary amines to yield a soluble orange colored product. Since PEG3400 released from hydrolyzed PEG3400-aconitic acid carries a free amine group at the end, the hydrolysis level of PEG3400-aconitic acid at different pH values is determined based on the amount of the colored product formed in TNBS assay. PEG3400-aconitic acid (2 mg/ml) was first dissolved in deionized water with a pH value of 5.0, 6.5, or 7.4 for hydrolysis. The hydrolysis reactions of 3 hours, 6 hours, 12 hours, and 24 fours were stopped by adjusting the pH value of the PEG3400-aconitic acid hydrolysate solutions to 8.2 and freezing. Sodium bicarbonate was added to the abovementioned hydrolysate solutions to a final concentration of 0.1 M (pH 8.2), and a 5% w/v TNBS solution was then added for reaction at 37° C. for 1 hour. The reaction was terminated using 1.0 N HCl, so that the volume ratio of the PEG3400-aconitic acid hydrolysate solution, the TNBS solution, and HCl was 4:2:1. Absorbance of the reaction-terminated solutions at 335 nm was measured with an enzyme-linked immunosorbent assay (ELISA) reader (Victor X3 2030 Multilabel Reader, PerkinElmer, Waltham, Mass., USA). According to the standard curve obtained from amine samples with known concentration, free amine group of PEG3400 in the reaction-terminated solutions was quantified and the hydrolysis level of PEG3400-aconitic acid at each pH was calculated.

[2] = system: human breast adenocarcinoma cells MDA-MB-231; assay: Cell viability assay (MTS assay), anti-tumor activity; assay type: cell-based; details: 10 μg/ml DOX equivalent, 24 hours treatment
Method: The anti-tumor activity of the drug-loaded polypeptide-based nanocarrier with protective shell of the present invention was evaluated in this example by cell viability assay (MTS assay) on human breast adenocarcinoma cells MDA-MB-231 cells. The cells were seeded in a 96-well plate (5×10^3 cells/well) and cultured in L-15 medium supplemented with 10% FBS and 1% penicillin and streptomycin at 37° C. for 1 day. Next, the medium was removed, and cells were treated with 100 μl L-15 medium containing DOX.HCl, the DOX-loaded polypeptide-based nanocarriers with protective shell of calcium phosphate and with LyP-1 peptide (M-DOX NP w/LyP-1), or the DOX-loaded polypeptide-based nanocarriers with protective shell of calcium phosphate and without LyP-1 peptide (M-DOX NP w/o LyP-1) at concentrations equivalent to 10 μg/ml DOX for 24 hours. The cells were rinsed with PBS 2 times and incubated with L-15 medium supplemented with 10% FBS and 1% penicillin and streptomycin at 37° C. for 24 hours, 48 hours, or 72 hours. To carry out the cell viability assay, the medium was first discarded from the 96-well plate, 10 μl MTS solution and 90 μl L-15 medium were added for incubation at 37° C. for 2.5 hours, and the solution was transferred to a new 96-well plate for measurement of light absorption at 490 nm. The assay was repeated 3 times.

Row | Compound | breakage of the cis-aconityl linkage ([1]; pH 5, within 12 hours) [%] | breakage of the cis-aconityl linkage ([1]; pH 6.5, within 12 hours) [%] | breakage of the cis-aconityl linkage ([1]; pH 6.5, within 24 hours) [%] | breakage of the cis-aconityl linkage ([1]; pH 7.4, within 12 hours) | viability of the breast adenocarcinoma cells ([2]; kept incubated for 72 hours) [%] | viability of the breast adenocarcinoma cells ([2]; first time point, post-incubation time not given) [%]
1 | PEG3400-aconityl linkage-polypeptide E15-H10-L10 (EEEEEEEEEEEEEEEHHHHHHHHHHLLLLLLLLLL; also: PEG3400 via aconityl linkage, site not given here) [polypeptide-based long chain copolymer] | 43.33 | 13.28 | 21 | about 1.97% |  | 
2 | COc1cccc2c1C(=O)c1c(O)c3c(c(O)c1C2=O)C[C@@](O)(C(=O)CO)C[C@@H]3O[C@H]1C[C@H](N)[C@H](O)[C@H](C)O1 [DOX.HCl, doxorubicin hydrochloride] |  |  |  |  | 5.4 | 14.3
